The values below come from PMC7461331, “Stability of Begomoviral pathogenicity determinant βC1 is modulated by mutually antagonistic SUMOylation and SIM interactions” (BMC Biology, 2020).

This series deals with the molecule itself. In words: SEC; size exclusion profile of recombinant NiNTA purified 6X HIS SUMO proteins on a SD75 column, void volume 40.25 ml; AtSUMO3 and AtSUMO5 after refolding. On the technique in general: SEC sorts molecules by how far they enter the pores of the column.

B1: 6X HIS tagged AtSUMO3, recombinant, refolded (natural protein, Arabidopsis thaliana, UniProt Q9FLP5 1-111, looked up)
chain: MSNPQDDKPIDQEQEAHVILKVKSQDGDEVLFKNKKSAPLKKLMYVYCDRRGLKLDAFAFIFNGARIGGLETPDELDMEDGDVIDACRAMSGGLRANQRQWSYMLFDHNGL
notes: 15N-labelled; not shown: His6, N-terminal, kept
For B1, the binding result is “binds”.

B2: 6X HIS tagged AtSUMO5, recombinant, refolded (natural protein, Arabidopsis thaliana, UniProt Q8VZI7 1-108, looked up)
chain: MVSSTDTISASFVSKKSRSPETSPHMKVTLKVKNQQGAEDLYKIGTHAHLKKLMSAYCTKRNLDYSSVRFVYNGREIKARQTPAQLHMEEEDEICMVMELGGGGPYTP
notes: as for B1
With B2, the binding result is “binds”.
